Common to all, as to assay: fluorescence correlation spectroscopy
One data set deals with Arc NTD-linker-SNAP.
Data set [1] concerns the molecule itself.
Data set [2] deals with the molecule itself. This is another data set of the same source.

Results on two molecules are retold here after article doi:10.1101/2024.06.05.597462 (bioRxiv, 2024).

Where two headings read alike, the source gives them in different places.

As a reminder, the stoichiometry N is the number of molecules, sites or subunits per partner or assembly. In the data set with Arc NTD-linker-SNAP, “Arc NTD-linker-SNAP (domain or fragment)” registered a stoichiometry N of 4.

B1: Arc-FL-C-EGFP (natural protein)
chain: MELDHMTTGGLHAYPAPRGGPAAKPNVILQIGKCRAEMLEHVRRTHRHLLTEVSKQVERELKGLHRSVGKLENNLDGYVPTGDSQRWKKSIKACLCRCQETIANLERWVKREMHVWREVFYRLERWADRLESMGGKYPVGSEPARHTVSVGVGGPEPYCQEADGYDYTVSPYAITPPPAAGELPEQESVGAQQYQSWVPGEDGQPSPGVDTQIFEDPREFLSHLEEYLRQVGGSEEYWLSQIQNHMNGPAKKWWEFKQGSVKNWVEFKKEFLQYSEGTLSREAIQRELDLPQKQGEPLDQFLWRKRDLYQTLYVDAEEEEIIQYVVGTLQPKFKRFLRHPLPKTLEQLIQRGMEVQDGLEQAAEPSVTPLPTEDETEALTPALTSESVASDRTQPE
B1: the “stoichiometry N” value in data set [1] was determined as 627; in data set [2], 4.3.
